Measured values: US20130251719A1

Molecular target: PCV2-ORF2-antigens coated on ELISA plates (porcine circovirus type 2 (PCV2))
Experiment: competitive ELISA on PCV2-ORF2-antigens, competitor HRP-conjugated anti-PCV2 mab; residual signal of the mab

With “positive control of commercialized testkit (Ingenasa)” as the substance, how does the OD read?
The OD was 0.343 OD at 450 nm.
